Experimental data taken from paper PMC4632003, “Mitofilin and CHCHD6 physically interact with Sam50 to sustain cristae structure” (Scientific Reports, 2015).

T1: His-tagged Mitofilin 123-758 (human, UniProt Q16891 123-758)
T1 construct: Mitofilin, human, residues 123-758, cloned into pET-28a; The methods of the pull-down name 'GST-Mitofilin' where results, legend and plasmids say His-tagged Mitofilin 123-758; its purification is not described; also called His-Mitofilin^123–758; source: E. coli
T1 sequence (looked up): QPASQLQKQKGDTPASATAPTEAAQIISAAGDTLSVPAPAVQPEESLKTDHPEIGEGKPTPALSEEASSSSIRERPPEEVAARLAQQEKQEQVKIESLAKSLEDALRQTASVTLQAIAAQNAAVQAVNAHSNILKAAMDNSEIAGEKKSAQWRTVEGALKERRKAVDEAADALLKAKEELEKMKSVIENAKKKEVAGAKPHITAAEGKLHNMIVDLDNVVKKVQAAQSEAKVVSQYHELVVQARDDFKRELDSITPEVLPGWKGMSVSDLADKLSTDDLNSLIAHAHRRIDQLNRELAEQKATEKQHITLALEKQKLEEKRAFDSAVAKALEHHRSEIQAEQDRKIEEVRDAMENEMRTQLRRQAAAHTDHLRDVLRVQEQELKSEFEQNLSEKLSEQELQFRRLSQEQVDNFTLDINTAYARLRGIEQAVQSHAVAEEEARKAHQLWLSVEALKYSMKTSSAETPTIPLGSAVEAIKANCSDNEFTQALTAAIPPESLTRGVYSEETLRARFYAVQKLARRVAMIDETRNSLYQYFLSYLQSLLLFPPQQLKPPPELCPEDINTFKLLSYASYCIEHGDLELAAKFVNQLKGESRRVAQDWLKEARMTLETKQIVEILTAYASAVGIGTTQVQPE

T2: GST-tagged Sam50 (Homo sapiens (Human), UniProt Q9Y512)
T2 chain: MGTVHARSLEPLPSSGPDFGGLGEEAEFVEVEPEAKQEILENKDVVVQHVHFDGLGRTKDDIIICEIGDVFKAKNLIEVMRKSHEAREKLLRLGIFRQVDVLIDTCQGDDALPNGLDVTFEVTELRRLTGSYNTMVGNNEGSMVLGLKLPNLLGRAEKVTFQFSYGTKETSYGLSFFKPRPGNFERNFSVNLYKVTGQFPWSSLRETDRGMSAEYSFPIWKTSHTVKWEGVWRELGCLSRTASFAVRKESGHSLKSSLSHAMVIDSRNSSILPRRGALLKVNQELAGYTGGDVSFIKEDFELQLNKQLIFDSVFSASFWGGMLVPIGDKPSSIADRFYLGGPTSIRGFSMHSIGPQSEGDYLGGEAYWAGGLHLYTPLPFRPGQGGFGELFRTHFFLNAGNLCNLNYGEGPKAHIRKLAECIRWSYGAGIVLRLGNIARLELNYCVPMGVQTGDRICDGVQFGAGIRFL

B1: GST-tagged Sam50 (natural protein, human, UniProt Q9Y512 1-469, looked up)
chain: T2 chain
notes: Sam50, human, full-length cDNA cloned into pGEX-6P-1; also called GST-Sam50; source: E. coli (BL21), purified (glutathione agarose)
B2: His-tagged full-length CHCHD6 (natural protein, human, UniProt Q9BRQ6 1-235, looked up)
chain: MGSTESSEGRRVSFGVDEEERVRVLQGVRLSENVVNRMKEPSSPPPAPTSSTFGLQDGNLRAPHKESTLPRSGSSGGQQPSGMKEGVKRYEQEHAAIQDKLFQVAKREREAATKHSKASLPTGEGSISHEEQKSVRLARELESREAELRRRDTFYKEQLERIERKNAEMYKLSSEQFHEAASKMESTIKPRRVEPVCSGLQAQILHCYRDRPHEVLLCSDLVKAYQRCVSAAHKG
notes: CHCHD6, human, full length, cloned into pET-28a; also called His-CHCHD6; source: E. coli (BL21), purified (Nickel-NTA agarose)
B3: His-tagged CHCHD6 NΔ15 variant (domain or fragment, human, UniProt Q9BRQ6 16-235, looked up)
chain: VDEEERVRVLQGVRLSENVVNRMKEPSSPPPAPTSSTFGLQDGNLRAPHKESTLPRSGSSGGQQPSGMKEGVKRYEQEHAAIQDKLFQVAKREREAATKHSKASLPTGEGSISHEEQKSVRLARELESREAELRRRDTFYKEQLERIERKNAEMYKLSSEQFHEAASKMESTIKPRRVEPVCSGLQAQILHCYRDRPHEVLLCSDLVKAYQRCVSAAHKG
notes: CHCHD6, human, deletion variant that lacks the N-terminal 15 amino acids; cloned into pET-28a; source: E. coli (BL21), purified (Nickel-NTA agarose); not shown: His tag, N-terminal, kept
B4: His-tagged CHCHD6 CΔ46 variant (protein)
chain: MGSTESSEGRRVSFGVDEEERVRVLQGVRLSENVVNRMKEPSSPPPAPTSSTFGLQDGNLRAPHKESTLPRSGSSGGQQPSGMKEGVKRYEQEHAAIQDKLFQVAKREREAATKHSKASLPTGEGSISHEEQKSVRLARELESREAELRRRDTFYKEQLERIERKNAEMYKLSSEQFHEAASKMESTIK

Assays:
[1] = target: T1, His-tagged Mitofilin 123-758; experiment: pull-down; GST pull-down: 10 μg purified GST-tagged protein, 10 μg His-tagged protein and glutathione Sepharose 4B in 1 ml PBS with protease inhibitor, overnight at 4 °C, washed five times with cold PBS; Western blot; settings: both partners purified
[2] = target: T2, GST-tagged Sam50; experiment: GST pull-down
[3] = target: B1; experiment: pull-down; GST pull-down: 10 μg purified GST-tagged protein, 10 μg His-tagged protein and glutathione Sepharose 4B in 1 ml PBS with protease inhibitor, overnight at 4 °C, washed five times with cold PBS; Western blot; settings: both partners purified

Row | binding result [1] | binding result [2] | binding result [3] | Binder
1 | binds | – | – | B1
2 | – | binds | binds | B2
3 | – | binds | binds | B3
4 | – | no binding | – | B4
